Measured values published in publication PMC11452509.

Assays:
Experiment in all cases: SPR
[1] = target: trastuzumab produced in CHO-gmt8 cells (human (detected with anti human IgG (H + L)))
[2] = target: trastuzumab produced in CHO-K1 cells (human (detected with anti human IgG (H + L)))
[3] = target: trastuzumab produced in CHO-gmt21 cells (human (detected with anti human IgG (H + L)))
[4] = target: trastuzumab produced in CHO-gmt9 cells (human (detected with anti human IgG (H + L)))
[5] = target: trastuzumab produced in CHO-gmt13 cells (human (detected with anti human IgG (H + L)))

Kd [1]: 0.2 µM
Kd [2]: 0.56 µM
Kd [3]: 0.799 µM
Kd [4]: 0.08 µM
Kd [5]: 0.78 µM
Substance: extracellular domain of human FcγRIIIa with a His-tag (from UniProt P08637 17-208) (receptor)
